Assay [1] addresses T1, human IL-33 (R&D Systems, #3625-IL-010/CF) (human, UniProt O95760 112-270).
T1 sequence (looked up): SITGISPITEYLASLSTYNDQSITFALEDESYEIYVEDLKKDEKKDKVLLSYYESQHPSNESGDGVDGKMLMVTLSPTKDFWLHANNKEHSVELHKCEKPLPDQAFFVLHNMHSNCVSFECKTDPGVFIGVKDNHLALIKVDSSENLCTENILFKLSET
Description: cell-based or functional assay.

Assay [2] addresses T1, human IL-33 (R&D Systems, …). Description: cell-based or functional assay. This is another data set of the same source.
Assay [3] concerns the target T2, biotinylated human IL-33 (human, UniProt O95760 112-270, biotin-labeled with EZ-LINK NHS-PEG4-Biotin).
T2 construct: also called biotin-huIL-33
T2 sequence (looked up): T1 sequence (looked up)
Kind of assay: competitive ELISA, biotin-huIL-33 to coated hST2-Fc. On the procedure:
(§1) The ability of the anti-IL-33 antibody 10C12.38.H6.87Y.58I IgG4 and each anti-IL-33 antibody listed in Table 5 (RG1-RG20) to block either human IL-33 or cyno IL-33 binding to human ST2 receptor was tested in a competitive binding ELISA. Briefly, 1 μg/ml of recombinant human ST2-Fc chimera protein prepared in coating buffer (50 mM sodium carbonate, pH 9.6) was coated on a 384-well MAXISORP® plate (Nalgene Nunc International; Rochester, N.Y.) and incubated overnight at 4° C. On the next day, non-specific binding was blocked with PBS containing 0.5% (w/v) solution of bovine serum albumin (BSA). Fixed concentrations of biotinylated human or cyno IL-33 prepared in assay buffer (25 mM PBS, pH 7.2, 0.1% BSA, 0.05% TWEEN®-20) were mixed with an equal volume of serially-diluted anti-IL-33 antibodies or assay buffer alone and incubated for 1 h at room temperature. The final assay concentrations of biotinylated human IL-33 or cyno IL-33 were 20 pM and 45 pM, respectively, and the final assay concentration of each antibody ranged from 0-300 nM. The pre-mixed solutions were added to the ST2-Fc coated plate and incubated for 1 h at room temperature. The binding of biotinylated IL-33 to coated ST2-Fc was detected by the sequential addition of Streptavidin Poly-HRP80 (Fitzgerald; Buckinghamshire, UK) and 3,3′,5,5′-tetramethyl benzidine (TMB) Microwell Peroxidase Substrate System (KPL; Gaithersburg, Md.). The absorbance (450 nm) was recorded using a […] ASCENT® plate reader (Thermo Scientific; Rockford, Ill.). The binding activity (%) of biotin-IL-33 to ST2 in the presence of anti-IL-33 was plotted as a function of antibody concentration. The data generated were fitted to a four-parameter equation to determine IC₅₀ values for each antibody (FIGS. 25A and 25B) using Prism software (Graphpad Software; La Jolla, Calif.). The maximum blocking (%) of each antibody was calculated as the ratio of the reduction in signal measured in the presence of antibody relative to the difference between the signal with IL-33 alone and background measurements.

Assay [4] has as its target T1, human IL-33 (R&D Systems, …). Description: SPR Biacore T200, 25 C. On the procedure: (§2) The binding kinetics of the anti-IL-33 antibody 10C12.38.H6.87Y.58I IgG4 and each anti-IL-33 antibody listed in Table 5 (RG1-RG20) to IL-33 were measured using surface plasmon resonance (SPR) on a BIACORE® T200 instrument (GE Healthcare). Anti-human Fc or anti-murine Fc (GE Healthcare, #BR-1008-39 or BR-1008-38, respectively) was immobilized on a CM5 sensor chip via amine-based coupling according to the manufacturer's protocol. Surfaces were used to capture monoclonal human IgG4 and monoclonal murine IgGs for kinetic studies. Antibody binding was measured to human IL-33 (R&D systems, #3625-IL-010/CF) and cyno IL-33 N-His (SEQ ID NO: 317) (Genentech, Inc.). A three-fold concentration series of cytokine with a range of 3.7 to 100 nM was used for the experiments. Sensograms for binding of IL-33 were recorded using an injection time of 4 min with a flow rate of 30 μl/minute with a running buffer of 0.01 M N-(2-Acetamido)iminodiacetic acid (ADA) pH 7.4, 0.15 M NaCl, 3 mM EDTA, and 0.05% TWEEN®-20. After injection, disassociation of the ligand from the antibody was monitored for 10 min in running buffer. The surface was regenerated in between cycles with an injection of 3 M magnesium chloride or Glycine-HCl pH 1.7. All binding experiments were performed at a temperature of 25′C and 37° C. After subtraction of a blank which contained running buffer only, sensograms observed for IL-33 binding to anti-IL-33 antibodies were analyzed using a 1:1 Langmuir binding model with software supplied by the manufacturer to calculate the kinetics and binding constants, including the dissociation constant (KD). Dissociative half-lives (t_{1/2}) were calculated from the kinetic rate constants. KD (M)=koff/kₒₙ and t_{1/2} (min)=ln(2)/(60*koff). […] In Tables 6-9, *IC indicates the result is inconclusive due to weak capture of antibody was observed, leading to poor binding data.
A general note: Surface plasmon resonance follows binding to a sensor surface in real time, without labels.

The target in assay [5] is T3, cyno IL-33 N-His (cynomolgus monkey).
T3 chain: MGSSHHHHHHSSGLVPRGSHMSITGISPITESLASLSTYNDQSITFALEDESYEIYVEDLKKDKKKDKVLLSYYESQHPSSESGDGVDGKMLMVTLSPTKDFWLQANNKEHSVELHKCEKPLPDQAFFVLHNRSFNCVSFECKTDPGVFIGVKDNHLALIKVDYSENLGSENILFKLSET
Kind of assay: SPR Biacore T200, 25 C. On the procedure:
as §2

Assay [6] addresses T1, human IL-33 (R&D Systems, …). Kind of assay: SPR Biacore T200, 37 C. How it is done: as §2
The target in assay [7] is T3, cyno IL-33 N-His. Description: SPR Biacore T200, 37 C. How it is done: as §2
Assay [8] deals with T1, human IL-33 (R&D Systems, …). Kind of assay: cell-based or functional assay. This is another data set of the same source.
For assay [9], the target named is T4, biotinylated cyno IL-33 (cynomolgus monkey, UniProt A0A2K5W3I1 112-269, biotin-labeled with EZ-LINK NHS-PEG4-Biotin).
T4 construct: also called biotin-cyIL-33
T4 sequence: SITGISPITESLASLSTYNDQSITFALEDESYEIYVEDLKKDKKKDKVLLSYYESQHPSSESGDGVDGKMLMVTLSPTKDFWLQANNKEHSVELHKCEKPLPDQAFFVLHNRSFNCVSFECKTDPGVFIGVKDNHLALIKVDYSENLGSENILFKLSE
Description: competitive ELISA, biotin-cyIL-33 to coated hST2-Fc. How it is done:
as §1

For assay [10], the target named is T5, cynomolgus monkey N-terminal 6-His-tagged and C-terminal Avi-tagged IL-33 (S112-T270) (cynomolgus monkey).
T5 chain: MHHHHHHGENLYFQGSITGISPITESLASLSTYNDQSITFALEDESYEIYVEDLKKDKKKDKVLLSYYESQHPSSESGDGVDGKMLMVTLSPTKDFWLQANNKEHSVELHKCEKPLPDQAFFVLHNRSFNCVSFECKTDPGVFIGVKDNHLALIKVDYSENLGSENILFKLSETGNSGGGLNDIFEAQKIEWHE
Description: cell-based or functional assay.

The target in assay [11] is T1, human IL-33 (R&D Systems, …). Description: cell-based or functional assay. This is another data set of the same source.

Residue numbers refer to the chain shown, from its start.

B1: H1M9566N (antibody, IgG1, V domains shown)
VH: EVQLLESGGDLVQPGGSLRLSCAASGFTFSSYAMSWVRQAPGKGLEWVSVISGSGSSTDYADSVKGRFTISRDNSRDTLHLQMNSLRAEDTAVYYCAKTFYYFYGLDVWGQGTTVTVSS
VL: DIQMTQSPSSLSASLRDRVTITCRASQGISNYLAWYQQKPGKVPKVLIYAASTLQSGVPSRFSGSGSGTVFTLTISSLQTEDVATYYCQKYSSAPFTFGPGTKVDIK
notes: also called RG2
Take B1: the “Ph-p38 MFI at 0.4 nM Ab (500 pM human IL-33, primary basophils)” value (shortened to “Ph-p38 MFI at 0.4 nM Ab”) in assay [1] turned out to be 119 MFI. Further, the “Ph-p38 MFI at 2 nM Ab (500 pM human IL-33, primary basophils)” value (“Ph-p38 MFI at 2 nM Ab” for short) in assay [2] was 146 MFI. For the same molecule, in assay [3], the IC50 turned out to be 0.099 nM and the “Maximum Blocking” value was 27%. In assay [4], this molecule showed a Kd of 0.798 nM, a koff of 7.73e-05 s⁻¹, a kon of 96900 M⁻¹ s⁻¹ and a t1/2 of 149 min. In assay [5], binding was put at a Kd of 0.656 nM, the koff was 7.66e-05 s⁻¹, the kon amounted to 117000 M⁻¹ s⁻¹ and the t1/2 turned out to be 151 min. Moreover, in [6], the affinity, expressed as Kd, was 4.04 nM; the koff is 0.000522 s⁻¹; the kon amounted to 129000 M⁻¹ s⁻¹; the t1/2 is 22 min. In [7], this molecule registered a Kd of 2.54 nM, a koff of 0.000469 s⁻¹, a kon of 185000 M⁻¹ s⁻¹ and a t1/2 of 25 min. Also, in assay [8], the “IC50; SEAP reporter (OD 620), HEK-BLUE IL-33/IL-1beta cells, 10 pM hIL-33” value (from here on “IC50; SEAP reporter”) worked out at 1.7e-08 M.

B2: H1M9565N (antibody, V domains shown)
VH: QVTLKESGPVLVKPTESLTLTCSVSGFSLSNVRMGVSWIRQSPGKALEWLAHIFSNDEKSYTTSLKTRLTISKDTSRSQVVLTMTDMDPGDTATYYCARIRNLAFNYWGQGTLVTVSS
VL: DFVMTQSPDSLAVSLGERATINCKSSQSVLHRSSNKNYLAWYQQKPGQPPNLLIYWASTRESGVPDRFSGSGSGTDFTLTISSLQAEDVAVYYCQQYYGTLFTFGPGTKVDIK
Take B2: in assay [9], the IC50 came to 19 nM and the “Maximum Blocking” value turned out to be 85%. For the same molecule, the “HEK-BLUE SEAP reporter IC50” value in assay [10] is 6.1 nM. In assay [5], this molecule came in with a Kd of 2.98 nM, a koff of 0.000606 s⁻¹, a kon of 203000 M⁻¹ s⁻¹ and a t1/2 of 19 min.

B3: H1M9559N (antibody, IgG1, V domains shown)
VH: QVQLVESGGGVVQPGRSLRLSCAASGFTFSSYGMHWVRQAPGKGLEWVAVIWYDGRNKYYTDSVKGRFTISRDNSKNTLYLQMDSLRAEDTAVYYCARERYISSYYGGFDPWGQGALVTVSS
VL: DIQMTQSPSSVSASVGDRVTITCRASQGISSWLAWYQQKPGKAPKVLIYAASSLQSGVPSRFSGSGSGTDFTLTISSLQPEDFATYYCQQANSFPFTFGPGTKLDIK
notes: also called RG1
In the case of B3, the “Ph-p38 MFI at 0.4 nM Ab” value in assay [1] worked out at 90 MFI. In addition, the “Ph-p38 MFI at 2 nM Ab” value in assay [2] came out at 100 MFI. Also, in assay [3], the IC50 stood at 4.1 nM and the “Maximum Blocking” value turned out to be 75%. In assay [4], this molecule returned a Kd of 0.811 nM, a koff of 0.000184 s⁻¹, a kon of 226000 M⁻¹ s⁻¹ and a t1/2 of 63 min. In assay [5], this molecule returned a dissociation constant Kd of 3.76 nM, a koff of 0.000458 s⁻¹, a kon of 122000 M⁻¹ s⁻¹ and a t1/2 of 25 min. In addition, in [6], binding was put at a Kd of 2.37 nM, the koff was determined as 0.000888 s⁻¹, the kon was 374000 M⁻¹ s⁻¹ and the t1/2 was found to be 13 min. Besides, in assay [7], the Kd came out at 8.33 nM, the koff amounted to 0.00193 s⁻¹, the kon stood at 232000 M⁻¹ s⁻¹ and the t1/2 amounted to 6 min. For the same molecule, in assay [8], the “IC50; SEAP reporter” value was found to be 9.5e-09 M.

B4: H4H9633P (antibody, IgG4, V domains shown)
VH: EVQLVESGGGLVQPGGSLRLSCAASGFTFSSYVMSWVRQAPGKGLEWVSSISGNGGSTNYADSVKGRFTISRDNSKNTLFLEMNSLRAEDTAVYYCAKSLGTTTTFLGFDYWGQGTLVTVSS
VL: B3 VL with V46L, D70Y, F96L, P100G, L104V, D105E
notes: also called RG5
Consider B4, for which the “Ph-p38 MFI at 0.4 nM Ab” value in assay [1] was found to be 149 MFI. Further, the “Ph-p38 MFI at 2 nM Ab” value in assay [2] amounted to 142 MFI. In assay [3], the IC50 turned out to be 1.1 nM and the “Maximum Blocking” value came out at 68%. In [11], the “IC50; IFN-gamma ELISA, primary human NK cells, 260 pM hIL-33 + IL-12” value stood at 4.1e-08 M. Also, in [4], binding was put at a Kd of 0.941 nM, the koff is 0.000462 s⁻¹, the kon was 491000 M⁻¹ s⁻¹ and the t1/2 is 25 min. In assay [5], this molecule gave a Kd of 14.9 nM, a koff of 0.00337 s⁻¹, a kon of 227000 M⁻¹ s⁻¹ and a t1/2 of 3 min. Further, in assay [6], the affinity, expressed as Kd, was 0.726 nM; the off-rate (koff) was found to be 0.000845 s⁻¹; the kon came out at 1.16e+06 M⁻¹ s⁻¹; the t1/2 was 14 min. In [7], the affinity, expressed as Kd, was 42.7 nM; the koff was 0.0113 s⁻¹; the kon was determined as 265000 M⁻¹ s⁻¹; the t1/2 was 1 min. In addition, the “IC50; SEAP reporter” value in [8] is 3.7e-09 M.

One may read the IC50 as the concentration at which inhibition is half-maximal. By Kd is commonly meant the free concentration of one partner at which half of the binding sites on the other are occupied at equilibrium, for simple one-to-one binding. A word on the koff: it is the first-order rate constant of dissociation. The kon is the rate constant with which the complex forms.

For the origin of these results see patent US20190092852A1 (Genentech, published 2019).
